Laboratory results from article PMC2654206.

What was measured:
Cys83 = Cys83 (UniProt position 83, ISPMGCRTGFY); settings: free enzyme (no substrate or ligand bound); metal form not stated; cited from earlier work
[1] = tested on: N[C@@H](CCSC[C@@H](O)C(=O)[C@@H](O)CO)C(=O)O; assay: purified protein; settings: Co(II) enzyme
[2] = tested on: N[C@@H](CCSC[C@@H](O)C(=O)[C@@H](O)CO)C(=O)O; assay: homocysteine release, DTNB assay; format: biochemical, Vibrio campbellii; settings: Co(II) enzyme
[3] = substrate: N[C@@H](CCSC[C@@H](O)C(=O)[C@@H](O)CO)C(=O)O; assay: homocysteine release, DTNB assay; format: biochemical, Bacillus subtilis; settings: Co(II) enzyme

| Molecule | Km [2] [µM] | kcat [2] [s⁻¹] | kcat/Km [2] [M⁻¹ s⁻¹] | further results |
| --- | --- | --- | --- | --- |
| S-ribosylhomocysteinase (LuxS), EcLuxS (Escherichia coli) |  |  |  | pKa (Cys83): <6 |
| VhLuxS (Co-VhLuxS) (Vibrio campbellii ATCC BAA-1116) |  |  |  | Km [1]: 27 ± 2 µM; kcat [1]: 0.64 ± 0.02 s⁻¹; kcat/Km [1]: 24000 M⁻¹ s⁻¹ |
| VhLuxS (Co-VhLuxS) (Vibrio campbellii ATCC BAA-1116; C83A) | 700 ± 120 | 0.022 ± 0.002 | 31 |  |
| VhLuxS (Co-VhLuxS) (Vibrio campbellii ATCC BAA-1116; E57A) | 98 ± 13 | 0.012 ± 0.001 | 120 |  |
| VhLuxS (Co-VhLuxS) (Vibrio campbellii ATCC BAA-1116; E57D) | 730 ± 120 | 0.026 ± 0.003 | 36 |  |
| VhLuxS (Co-VhLuxS) (Vibrio campbellii ATCC BAA-1116; H11Q) | 520 ± 60 | 0.024 ± 0.002 | 47 |  |
| VhLuxS (Co-VhLuxS) (Vibrio campbellii ATCC BAA-1116; R39M) | 150 ± 20 | 0.016 ± 0.001 | 110 |  |
| VhLuxS (Co-VhLuxS) (Vibrio campbellii ATCC BAA-1116; S6A) | 40 ± 3 | 0.14 ± 0.01 | 3400 |  |
| BsLuxS (Co-BsLuxS) (Bacillus subtilis subsp. subtilis str. 168) (protein) MPSVESFELDHNAVVAPYVRHCGVHKVGTDGVVNKFDIRFCQPNKQAMKPDTIHTLEHLLAFTIRSHAEKYDHFDIIDISPMGCQTGYYLVVSGEPTSAEIVDLLEDTMKEAVEITEIPAANEKQCGQAKLHDLEGAKRLMRFWLSQDKEELLKVFG |  |  |  | Km [3]: 3.6 ± 0.1 µM; kcat [3]: 0.038 ± 0.001 s⁻¹; kcat/Km [3]: 11000 M⁻¹ s⁻¹ |
